Measurements as given in the DeepSol protein solubility set.

Experiment: soluble on expression in E. coli; label from the status in PepcDB or PDB records

Sequence	soluble on expression in E. coli
MGSDKIHHHHHHMKFKQDYFDQLSGFYSQVTPQGLPRPQWLAWSEDAAALIGLKQPDDELLQGLAGNQAIPGASYYAQVYSGHQFGGYSPQLGDGRSIILGEAEGPQGYWDVALKGAGMTPYSRHGDGRAVMRSAVREFLVSEALHHLNIPTTRALAVIGSDLPVWRETQETAAITVRLAKSHIRFGHFEFFCHSEQGSKDKLKQLLDFTLSQHYPELSRDQAGYIAWFNRVVADTAKLIAHWQAVGFAHGVMNTDNMSILGDSFDFGPFAFLDTFEEDFICNHSDPNGRYAFGQQPGVGLWNLQRLAQALVPIIASDDLIAALNTYQHHLVQAYLVLMRDKLGIKLVEPAGSERDEADLQLIGGFTLLMEANRLDHTNTWRRFAQLDPNSQHSSLRDDFIDLAGFDTWYQAYQERLGQVSDVAGWQAVRAQVNPKYVLRNYLAQEAIIACEEGNTQPLAELHQLLTRPFDEQPEKEAYAKRPPEWGQGLIMSCSS	not soluble
MGSDKIHHHHHHMPNRDSEKLITDGYTTTLLGDELMVCENMKHIRVTSVPSYTEVGMIILCLRGTAKICIFDNIHILAKNELAVILPGQLVSITELSPDFLCNIVVLSRALFDDTLSGFSRFSPLFFVYMRSHYWYELTGEEIERFKLFYGSLSQRAKDPTHFFRRESVLLLLRIFYLDIYNEYYSKSHLMKGGSDMGKSKLAHDFFCLIMQHYREHKDVAFYADKLCITSKYLSMVIKEASGKTAKDWIVEYAILEIKAMLKNSTMNIQEISIKTNFANQSSLGRFFRKHTGMTLTEYRMHR	not soluble
MGSDKIHHHHHHMHFFIRIKEKYIECIRGNINDMQTADYSMVSEIIGNPQRLGMLVFLMDGRFRTVNEVTKATNLKPNTVSLYLSHFEKISWLDDYFQGRWHYYRLANSEVASLIEKILVLSPKKKITYFNLNEEEKLLHTGRSCYNHLAGQLGVQLLCSMKTLNWIRQDGSAFQLTDKGQSNLNNALEIKFSFQEQKSWDFILPCMDWSERQLHLKGIVGKKILGAMLDKEWLYRPNRTRALALTYKGKEKFGDFLQIRA	not soluble
SDRSAEFRKWKAQCLSKADLSRKGSVDEDVVELVQFLNMRDQFFTTSSCAGRILLLDRGINGFEVQKQNCCWLLVTHKLCVKDDVIVALKKANGDATLKFEPFVLHVQCRQLQDAQILHSMAIDSGFRNSGITVGKRGKTMLVVRSTHGLEVPLSHKGKLMVTEEYIDFLLNVANQKMEENKKRIERFYNCLQHALERETMTNLHPKIKEKNNSSYIHKKKRNPEKTRAQCITKESDEELENDDDDDLGINVTIFPEDY	soluble
MSLTQPPQQAISAAHSELEQNHRVLLQLMDTLVSQIKDYSEDVEFNLQNDSTIKNTIVEILSFISRSNQKDQLSLKVSQAVVNSLFGSNESKLCRDVLSLLLEKLCSLSIVARKDVVWWLVYALDPRKFNVPVVRSLLEVNLINIAEFDAVLVTAMKNGMAGATEFSMNLIRDTVMADSPILMRLDFIRILGYLRTINTPEIKAFLEEYEQCRAVPVSKTTSITKVERYYLVFTEWVKLQQRVETDDVVNIVFIRQLFEKGVIDSKEKVIEFIKAALELSVNSFKQSDPTGEVFTSIDALSRLITSLLVVQELNVEERKEYLNLLLSVVTLVFAKDHQTNMTSFNERPYFRLYSSLLSDWDKLRDHHFIRVSDSVVRKSLIEFDQYFFDIFASFLHSYQPIAFPGFSFAWITLISHRMFLPKVLRSKELYGWDKLVLLLIDLMKFLSQYIKKDNVPDSISVIYKGALRIFLGISNDVPEFLIQNHYKLVKNVPPTCIQLRNIILSAIPKKMMIPDPFVSEITEDNCKDIPQVFYDPSQDLKSLKKPIINYLRIPSSSLLRTICGGMFRTELEYENGIGYDENNVDVNLIHAIVTHVAVEVGLEVEKASKNAVFNVKSSYYTLLFGLLSDGNDEVKFHIIQAMVNQLRYPNVHTHWFNFALKLMFQSDQWPDDQLSTIQEIILRSLLERIIVNKPHPWGVVVTFMDLLKLEGTKMIEKPFINDIPEIHAIMKNLQKYALTSSSEGHHHHHH	soluble
MAKILVFDEAARRALERGVNAVANAVKVTLGPRGRNVVLEKKFGSPTITKDGVTVAKEVELEDHLENIGAQLLKEVASKTNDVAGDGTTTATVLAQAIVREGLKNVAAGANPLALKRGIEKAVEAAVEKIKALAIPVEDRKAIEEVATISANDPEVGKLIADAMEKVGKEGIITVEESKSLETELKFVEGYQFDKGYISPYFVTNPETMEAVLEDAFILIVEKKVSNVRELLPILEQVAQTGKPLLIIAEDVEGEALATLVVNKLRGTLSVAAVKAPGFGDRRKEMLKDIAAVTGGTVISEELGFKLENATLSMLGRAERVRITKDETTIVGGKGKKEDIEARINGIKKELETTDSEYAREKLQERLAKLAGGVAVIRVGAATETELKEKKHRFEDALNATRAAVEEGIVPGGGVTLLRAISAVEELIKKLEGDEATGAKIVRRALEEPARQIAENAGYEGSVIVQQILAETKNPRYGFNAATGEFVDMVEAGIVDPAKVTRSALQNAASIGALILTTEAVVAEKPEKKESTPAFAGAGDMDF	soluble
MLSLDQIPHHIRHGIVGSRLIQIRGRVTQVTGTLLKAVVPGVRIGELCYLRNPDNSLSLQAEVIGFAQHQALLIPLGEMYGISSNTEVSPTGTMHQVGVGEHLLGQVLDGLGQPFDGGHLPEPAAWYPVYQDAPAPMSRKLITTPLSLGIRVIDGLLTCGEGQRMGIFAAAGGGKSTLLASLIRSAEVDVTVLALIGERGREVREFIESDLGEEGLRKAVLVVATSDRPSMERAKAGFVATSIAEYFRDQGKRVLLLMDSVTRFARAQREIGLAAGEPPTRRGYPPSVFAALPRLMERAGQSSKGSITALYTVLVEGDDMTEPVADETRSILDGHIILSRKLAAANHYPAIDVLRSASRVMNQIVSKEHKTWAGDLRRLLAKYEEVELLLQIGEYQKGQDKEADQAIERMGAIRGWLCQGTHELSHFNETLNLLETLTQ	not soluble
MAHHHHHHMNKNYPGRITSAPLAQQARGLSLRPGAPASFLDRAQPGGAGTGIGAQQSHHNNNLPRAPRAKPPTQLQTPAPAPPLPKEEAEEERSGAAEVAPSEVSYPEDHIYDVEDFIKLRKCQAPVPSEVMEYARAMWKEMPENMDDMENNSLRDNLFREQNASTMSKVMTDRKINNEVLGILGKVTASNLEKMKKELTDLPIRQSTKEEIDEV	soluble
PSGTIVGLYTHTDFAKKLSVDIELNYISMGSLFTMNKDTPEQRDYKVSLGYISLPVNLNYCVYKHIHVQVGIQTLALLTAVTEQKYQNVVTKGKNINDFHAIDAGPTIGCYYQFEKGLQLGVRYYRGIQNVVKENMVLYNTGIQFLLTYQF	not soluble
MGSDKIHHHHHHGMDKLSTKNYHTLLEVINDQEMIASPNTQLDSQVIANSSPFGGEVVTNRSKNIDGYTVEWSNLRSRYSFFRNSIDWNEVYPGSYYSSKNFYEYNRQTKQKVASFYNPAITNYYGGIKNELSELDKMENQVAEVAISFDKPYPYEEVRKMLPSNVNLVWLYVYSETVNEAEGPSGTLPYGFQLSMDDQNEIFDPENDKQHFFETLEKSPLFADNQEGQKFIQQNKNKKVEKLPIWGVMLTGQTKNFKALQNEPFVRGASIGVTAPIVPYIQPEK	not soluble
MIGMAEVKLINIWKRFGDVTAVKDLSLEIKDGEFLVLLGPSGCGKTTTLRMIAGLEEPTRGQIYIEDNLVADPEKGVFVPPKERDVAMVFQSYALYPHMTVYDNIAFPLKLRKVPKQEIDKRVREVAEMLGLTELLNRKPRELSGGQRQRVALGRAIIRRPKVFLMDEPLSNLDAKLRVKMRAELKKLQRQLGVTTIYVTHDQVEAMTMGDRIAVMNKGELQQVGTPDEVYYKPVNTFVAGFIGSPPMNFLDATITDDGFLDFGEFKLKLLQDQFEVLEEENMVGKEVIFGIRPEDVHDASFTHIDVPEENTVKATVDIIENLGGEKIVHLRRGNISFTAKFPKESKVREGDEVSVVFDMKKIHIFRKDTEKAIF	soluble
MSLTDLDRVGLPVFQAVRPMGRSLSVSQGKGMTSMAARVSAMMEAVEIWHAEQDLPTTLRATIRSLGTRRAMDPNQLLMPGRDKVCEDLPIVWCPSLNLLDGADVLVPRDAANLDFTRAPDPPMLARSTTGLAGGNTRDEARASAIAEVIERACQREFQRLPPASRAQRRLDPTCLASAHRGLADPIERIRSAGLHLDIFDMTNRFDVPAIRAVIYETTAGKPVAWPCLGHGAHLDPVTAVVRALTEAAQARLTGISGNRDDISPGHYAGADMSNWVLRAMNGMDMSGTRRGLRHHDASGDSPAADVAAMIARITAHDADPLLEVDLSRPEIGVPVVKIIAPRIAYLASREGHHHHHH	not soluble
AKDAAFTVDGLSLTSKTNTVSTAISGMTFDLVAPSAAGATTTVTVATNTDGLKASLQSFVDSYNTLATLVTSLTKGSISDKGVFTAAALTGDATPRALLATIRDQLAGASSRAGLSALSQLGIKTQQSNGTLSLDTATFTAALNDKKLGSQIQTMFTGTGATNADGTVDGGLVARMSKALLPYTKADGVLASKTSSLTKVQTRIASDQDALDRRIESLTASLTKKYNAMDLVVGQLKATATSITSIFEAMNAQKNAS	not soluble
ADVYDIGRGAVMYVAGGKVSWAPRGGNEVKFEPVPKELKLVANRLHTSFPPHHVVDMSKFTFITPGSGVSMRVEYQYGCLPADTVPEGNCWWRLLDSLPPEVQYKEIRHANQFGYQTKHGVPGKYLQRRLQVNGLRAVTDTHGPIVIQYFSVKESWIRHLKLVEEPSLPGFEDLLRIRVEPNTSPLAGKDEKIFRFGSHKWYG	soluble
MGSDKIHHHHHHMTKVRVAGFGVSLDGFAAGTAQSLDHPLGVRGEEIFQWFFPTRTFRQMLGKEGGDTGLDDRFAQRAMEGFGAFILGRNMFGPVRGEWPDDQWKGWWGDNPPYHAPTFILTHHARPSIEMLGGTTFHFVTGGIEDALEKARKAAGGKDVKIGGGVKTVKQYVQAGYVDEIHLAFAPVALGQGESLFGGLDLRTLGYQTVEHVPTDRATHIVLAK	not soluble
MNENGATPVAAARRHRPLPAERATSNSNETGLLINVIRSLTSSVSEDQREVEKSRLEKGYKESGALIDRLVKNHQQDVEKCLVSFRDVSSKISNCRERIHNVRNALHTVKSLLELRRDDLKKLWHENAQQKSVCEIMAKLEELREAPSKIENLISKEQYQQAADTVTESRELINGRLSRVEGLSHLSAEIERFTKILIDKINDTLVNMLVVEPFEKHLLHIVRTIPEHRINQNAYCHSLSTKSRSGSGSVSSFSDVSAKSRIVSSVEALSTLFRTVEERHWDVDRLMMLGKNMIDKMIVNTVQVMKIGANIDESNEGDTTHLKQLMQLLSAQFDSASQQHAEFGVLVEKQLGRKDVVTSFWRSAQSAIEVVVSEHLDINPLLEKQNVLGTASRKQLFRFENTACATPNANSSSHRTKAVICKPSAYNIKVIFPILSRLMETTEKNINDSPCELRRFMHSFVMEVFVERVKGELASRIEGALRGGEAVRVSTNKKILPSCEKVLNLCKEVQDLIVSIDLYADRFAALWLLVLTDYFKNMTDVYDRMTPKNPDPSLPNSEALPTRRQKISAAWTADDDISRLLMSLPNWHAASISPMTPAVESELDVGERNKRESEILIGNLGTQAQNSLSESDLITDMNDIKMFASLHESLRWFSDEIRELVHSLPANVKMMLDTCMVQVRLKDGQMIDNNSVPSAIEDCVRRLESIADSCLLLLHIEIRVHCFFHLAPLAKYRNTSSHNEVDPEVVALGKDLHQFHDNLKDVLSPAKLSYVFDGLGHLCASLFIHYSQFMPRLTEAAKKRVCRNVWGVQQRLSRITNRRESDLDRARAFFDLLLDNTPDGILAIVPEKRSQFTATELNYLLALSVRSDKTLASQPGALEKRQMVLNSILNQKK	not soluble
